Test results taken from patent publication US20190127470A1 (TRUSTEES OF DARTMOUTH COLLEGE, published 2019).

Molecular target: T1, g2.5-11 scFv-Fc (UniProt P01857-1 1-330 = IgG part)
T1 construct: domain: heavy chain constant regions (CH1-CH3); also called g2.5-3 (identical at the amino acid level); Fg2.5-3
Experiment: Octet BLI, scFv-Fc loaded on anti-human CH1 tips, 0-500 nM B7H6-Ig in solution, global fit
Method: Anti-Human CH1 tips were activated with 0.05 mg/mL a2.5-11 scFv-Fc protein for 600 seconds to ensure saturation of tips with […]. Tips were then transferred to PBS+0.1% Tween (PBS-T)-containing wells for baseline measurements of scFv-Fc-loaded tips before transferring to antigen-containing wells ranging from 0-500 nM B7H6-Ig. Samples were double-referenced using non-activated tips and PBS-T only containing wells. The Octet Analysis software was used for global kinetic fits which determine a single KD measurement for each antigen using association and dissociation curves for all concentrations tested.

T1 sequence (P01857 other isoform, or with tags, fused parts or gaps limits assumed): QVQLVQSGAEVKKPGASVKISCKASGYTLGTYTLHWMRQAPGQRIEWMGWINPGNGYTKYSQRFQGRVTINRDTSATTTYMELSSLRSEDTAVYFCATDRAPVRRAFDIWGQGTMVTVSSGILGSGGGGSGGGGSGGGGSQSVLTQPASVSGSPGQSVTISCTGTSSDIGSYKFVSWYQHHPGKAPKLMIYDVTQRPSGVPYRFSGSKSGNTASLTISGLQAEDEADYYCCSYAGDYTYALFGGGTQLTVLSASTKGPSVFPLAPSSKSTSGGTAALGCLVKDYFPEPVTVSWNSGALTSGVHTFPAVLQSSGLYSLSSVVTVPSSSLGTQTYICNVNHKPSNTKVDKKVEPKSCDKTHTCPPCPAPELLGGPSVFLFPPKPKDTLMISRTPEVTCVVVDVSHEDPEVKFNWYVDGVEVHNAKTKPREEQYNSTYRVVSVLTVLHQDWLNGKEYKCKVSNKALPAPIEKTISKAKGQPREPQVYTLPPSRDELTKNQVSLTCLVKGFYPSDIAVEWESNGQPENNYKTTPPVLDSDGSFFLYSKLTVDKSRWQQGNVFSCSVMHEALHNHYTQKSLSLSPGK

B1: B7H6-Ig, a fusion protein containing the extracellular portion of B7H6 and the Fc portion of a Mouse IgG2a (Fc fusion, UniProt Q68D85 25-262, looked up)
chain: DLKVEMMAGGTQITPLNDNVTIFCNIFYSQPLNITSMGITWFWKSLTFDKEVKVFEFFGDHQEAFRPGAIVSPWRLKSGDASLRLPGIQLEEAGEYRCEVVVTPLKAQGTVQLEVVASPASRLLLDQVGMKENEDKYMCESSGFYPEAINITWEKQTQKFPHPIEISEDVITGPTIKNMDGTFNVTSCLKLNSSQEDPGTVYQCVVRHASLHTPLRSNFTLTAARHSLSETEKTDNFS
notes: extracellular domain; also called soluble B7H6-Ig antigen; not shown: Fc portion of a Mouse IgG2a
Kd: 25.7 nM | koff: 0.00035 s⁻¹ | kon: 13700 M⁻¹ s⁻¹
